Among the data in paper PMC11721464 are stoichiometry N values, retold here.

The target of the assay is Zika virus prM/E heterodimer of the immature virion (Zika virus strain MR-766). Briefly: cryo-EM structure; immature ZIKV MR-766 virions purified from NH4Cl-treated Vero E6 cells, neutral pH (TNE buffer, pH 7.4); icosahedral symmetry enforced, 8.3 Å map; homology model of prM/E (template SPOV PDB 6ZQI) fitted and refined in real space.

“Zika virus prM/E heterodimer of the immature virion (complex)”: the stoichiometry N – broadly, a count of units in the complex or per binding partner – was found to be 3.
